# Measured values reported in patent US20250002601A1 (INNATE PHARMA, published 2025).
# Residue numbers refer to the chain shown, from its start. Names and notes keep the numbering of the source.
# B1: CD20-1-T5-NKCE4-v3 (bispecific antibody)
# light: not shown
# heavy: not shown
# chain: DIQMTQSPSSLSASVGDRVTITCRASQDISNYLNWYQQKPGKAPKLLIYYTSRLHSGVPSRFSGSGSGTDFTFTISSLQPEDIATYFCQQGNTRPWTFGGGTKVEIKASTKGPSVFPLAPSSKSTSGGTAALGCLVKDYFPEPVTVSWNSGALTSGVHTFPAVLQSSGLYSLSSVVTVPSSSLGTQTYICNVNHKPSNTKVDKRVEPKSCDKTHSGSSSSGSSSSGSSSSTKKTQLQLEHLLLDLQMILNGINNYKNPKLTAMLAKKFYMPKKATELKHLQCLEEELKPLEEVLNLAQSKNFHLRPRDLISNINVIVLELKGSETTFMCEYADETATIVEFLNRWITFCQSIISTLT
# B2: CD20-4-T5-NKCE4-v3 (bispecific antibody)
# light: not shown
# heavy: not shown
# chain: B1 chain
# B3: CD20-3-T5-NKCE4-v3 (bispecific antibody)
# light: not shown
# heavy: not shown
# chain: B1 chain
# B4: CD20-2-T5-NKCE4-v3 (bispecific antibody)
# light: not shown
# heavy: not shown
# chain: B1 chain
# B5: CD20-2-T5A-NKCE4-v2 (bispecific antibody, human IgG1, kappa)
# chain 1: not shown
# chain 2: not shown
# chain 3: B1 chain
# B6: CD20-2-T6AB3-NKCE4-v2A (bispecific antibody, human IgG1, kappa)
# chain 1: not shown
# chain 2: EVQLVESGGGLVQPDRSLRLSCAASGFTFHDYAMHWVRQAPGKGLEWVSTISWNSGTIGYADSVKGRFTISRDNAKNSLYLQMNSLRAEDTALYYCAKDIQYGNYYYGMDVWGQGTTVTVSSASTKGPSVFPLAPSSKSTSGGTAALGCLVKDYFPEPVTVSWNSGALTSGVHTFPAVLQSSGLYSLSSVVTVPSSSLGTQTYICNVNHKPSNTKVDKRVEPKSCDKTHTCPPCPAPEAEGAPSVFLFPPKPKDTLMISRTPEVTCVVVDVSHEDPEVKFNWYVDGVEVHNAKTKPREEQYNSTYRVVSVLTVLHQDWLNGKEYKCKVSNKALPSSIEKTISKAKGQPREPQVYTLPPSREEMTKNQVSLTCLVKGFYPSDIAVEWESNGQPENNYKTTPPVLDSDGSFFLYSKLTVDKSRWQQGNVFSCSVMHEALHNHYTQKSLSLSPGSTGSQVQLVQSGAEVKKPGSSVKVSCKASGYTFSDYVINWVRQAPGQGLEWMGEIYPGSGTNYYNEKFKAKATITADKSTSTAYMELSSLRSEDTAVYYCARRGRYGLYAMDYWGQGTTVTVSSRTVAAPSVFIFPPSDEQLKSGTASVVCLLNNFYPREAKVQWKVDNALQSGNSQESVTEQDSKDSTYSLSSTLTLSKADYEKHKVYACEVTHQGLSSPVTKSFNRGEC
# chain 3: B1 chain with A265T, C349A
# Biological target: IL-2 receptor on cells of human PBMC (NK cells, CD4 T cells, CD8 T cells, Tregs)
# Assay: cell-based or functional assay
row,Binder,% of pSTAT5+ cells among NK cells [log]
1,B1,~1
2,B2,~1
3,B3,~1
4,B4,~1

# Biological target: T1, HuCD122-His (human, UniProt P14784 27-239)
# T1 construct: Captured on an anti-His CM5 chip; also called interleukin 2 receptor beta; IL2RP
# T1 sequence (looked up): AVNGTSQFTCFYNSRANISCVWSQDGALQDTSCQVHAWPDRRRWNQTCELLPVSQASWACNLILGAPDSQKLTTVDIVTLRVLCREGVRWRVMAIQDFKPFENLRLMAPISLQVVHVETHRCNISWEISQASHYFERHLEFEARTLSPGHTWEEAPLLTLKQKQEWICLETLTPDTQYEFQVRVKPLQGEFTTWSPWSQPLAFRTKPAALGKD
# Assay: SPR (Biacore), HuCD122-His captured on anti-His CM5 chip, analyte 31.25 nM to 1 µM, steady-state fit
# Description: Briefly, a biacore instrument was used with a CM5 chip comprising an immobilized anti-His antibody. Ligand HuCD122-His was injected at a dilution of […] to be captured on the chip. Proteins CD20-2-T5A-NKCE4-v2, CD20-2-T6AB3-NKCE4-v2A, CD20-2-T13A-NKCE4-v2A was then injected during 120 s with a flow of 10 μL/min, at a concentrations range from 31.25 nM to 1 μM. The interaction between these proteins and HuCD122-His was studied with a dissociation time of 600 s. The chip was then regenerated with NaOH 10 mM at a flow of 40 μL/min during 10 sec.
# Date has been analysed under the steady-state model, that seemed to be the most accurate regarding sensograms appearance.
row,Binder,Kd [µM]
1,B5,1.81
2,B6,2.84
